From patent US20230036655A1 (OTSUKA PHARMACEUTICAL, published 2023)

Assays:
[1] = biological target: T1, human GDF15 (hGDF15), mature, wild-type (human, UniProt Q99988 197-308); assay: competition ELISA: GFRAL immobilised, biotinylated GDF15 plus serially diluted antibody; inhibition of GDF15-GFRAL complex formation
T1 construct: Bought recombinant protein: R&D Systems 957-GD-025/CF in most assays, 9279-GD in the crystal and the GDF15/GFRAL/RET assay; It was biotinylated in the GFRAL assay; also called hGDF15 (WT); rhGDF15
T1 sequence: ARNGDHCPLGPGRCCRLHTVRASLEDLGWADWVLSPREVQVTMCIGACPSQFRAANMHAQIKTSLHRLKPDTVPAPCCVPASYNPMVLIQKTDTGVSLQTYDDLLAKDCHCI
Text: First, the effect on GDF15 and GFRAL complex formation was examined (FIG. 12). GFRAL (R&D systems, 9697-GR) was immobilized on a plate, and GDF15 (R&D systems, 957-GD/CF) biotinylated with EZ-Link Micro NHS-PEG4-Bitinylation Kit (Thermo Fisher Scientific, 21955) and a serially diluted solution of an anti-GDF15 monoclonal antibody (Table 26) were reacted with the plate. Human IgG1, kappa-Isotype Control (Abcam) was used as a negative control antibody. GDF15 bound to GFRAL was detected using Pierce High Sensitivity Streptavidin-HRP (Thermo Fisher Scientific, 21130). TMB 1-Component Microwell Peroxidase Substrate, SureBlue (SeraCare Life Sciences) was used for color development, and the reaction was stopped by adding a stop solution (Wako). Absorbance was measured at 450 nm (OD450) using Emax (Molecular Devices). The % of control value was calculated according to Equation-1 from the OD450 value when each antibody was added, with the OD450 value when no antibody was added as a control. The IC50 value was obtained by calculating the inhibition rate from the % of control value thus obtained according to Equation-2 and using an Excel macro for IC50 calculation.

[2] = biological target: T2, Peptide 1 (human, cysteine pairing not given here); assay: ELISA, peptide immobilised, anti-human IgG-HRP detection
T2 construct: Synthesized by GenScript
T2 peptide: H-DHCPLGPGRCCRLH-OH
Procedure: (§1) Peptide 1 was unmodified at both ends, and Peptide 2 was synthesized by acetylating the amino terminus and amidating the carboxyl terminus for the purpose of mimicking the natural state because this region is an internal region within hGDF15. HuMAB2 antibody (10 μg/mL) was added at 100 μL/well to a 96-well plate on which a 10 μg/mL peptide solution had been added at 100 μL/well and the peptide had been immobilized, and thereby reacted with the peptide (25° C. for 3 hours). The bound HuMAB2 antibody was detected by adding a 5000-fold diluted anti-human IgG-HRP (Jackson ImmunoResearch, 109-035-008) at 100 μL/well and reacted at 25° C. for 1 hour. A plate on which hGDF15 (R&D Systems, 957-GD-025/CF) was immobilized was used as a control plate. The detection antibody in Human GDF15 ELISA Kit (R&D Systems, DY957) (Table 9) was used as a positive control antibody that reacts with the peptide, and Human IgG1 Isotype control (Abcam, ab206198) was used as a negative control antibody.

[3] = biological target: T3, Peptide 2 (human, cysteine pairing not given here); assay: as above
T3 construct: Synthesized by GenScript
T3 peptide: Ac-DHCPLGPGRCCRLH-NH2
Procedure: as §1

[4] = biological target: T4, mutant hGDF15 4A (human, UniProt Q99988 197-308); assay: sandwich ELISA, HuMAB2 immobilised, mutant hGDF15, goat polyclonal detection (relative value 0.0)
T4 construct: Expressed in ExpiCHO-S cells and used as culture supernatant
T4 chain: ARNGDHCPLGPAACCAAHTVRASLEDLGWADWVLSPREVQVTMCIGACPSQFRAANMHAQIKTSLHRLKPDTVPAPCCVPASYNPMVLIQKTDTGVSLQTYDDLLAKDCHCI

[5] = biological target: T5, mutant hGDF15 6A (human, UniProt Q99988 197-308); assay: as above
T5 construct: Expressed in ExpiCHO-S cells and used as culture supernatant
T5 chain: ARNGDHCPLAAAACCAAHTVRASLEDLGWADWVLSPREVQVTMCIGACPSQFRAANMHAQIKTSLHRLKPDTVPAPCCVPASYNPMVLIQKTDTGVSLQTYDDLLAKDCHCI

[6] = biological target: T6, mutant hGDF15 3A (human, UniProt Q99988 197-308); assay: sandwich ELISA, HuMAB2 immobilised, mutant hGDF15, goat polyclonal detection (relative value 0.4)
T6 construct: Expressed in ExpiCHO-S cells and used as culture supernatant
T6 chain: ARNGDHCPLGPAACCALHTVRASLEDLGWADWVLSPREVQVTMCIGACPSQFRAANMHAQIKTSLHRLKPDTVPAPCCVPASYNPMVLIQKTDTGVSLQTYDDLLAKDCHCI

[7] = biological target: T7, mutant hGDF15 R13A (human, UniProt Q99988 197-308); assay: sandwich ELISA: antibody immobilised, WT or mutant hGDF15, goat polyclonal detection; N=3, mean ± SD
T7 construct: Expressed in ExpiCHO-S cells and used as culture supernatant in the ELISA
T7 chain: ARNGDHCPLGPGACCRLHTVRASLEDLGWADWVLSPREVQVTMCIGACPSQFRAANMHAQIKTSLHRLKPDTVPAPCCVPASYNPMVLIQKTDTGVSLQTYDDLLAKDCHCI

[8] = biological target: T8, mutant hGDF15 R16A (human, UniProt Q99988 197-308); assay: as above
T8 construct: Expressed in ExpiCHO-S cells and used as culture supernatant in the ELISA
T8 chain: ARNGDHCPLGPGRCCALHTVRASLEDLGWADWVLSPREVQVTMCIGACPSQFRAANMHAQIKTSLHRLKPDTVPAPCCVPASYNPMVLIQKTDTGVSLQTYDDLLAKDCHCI

[9] = biological target: T9, mutant hGDF15 H6A (human, UniProt Q99988 197-308); assay: as above
T9 construct: Expressed in ExpiCHO-S cells and used as culture supernatant in the ELISA
T9 chain: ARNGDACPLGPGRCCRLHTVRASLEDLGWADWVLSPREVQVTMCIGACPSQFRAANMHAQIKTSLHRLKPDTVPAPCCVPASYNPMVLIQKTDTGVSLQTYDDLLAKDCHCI

[10] = biological target: T4, mutant hGDF15 4A; assay: as above
[11] = biological target: T6, mutant hGDF15 3A; assay: as above
[12] = biological target: T10, mutant hGDF15 8A (human, UniProt Q99988 197-308); assay: as above
T10 construct: Expressed in ExpiCHO-S cells and used as culture supernatant
T10 chain: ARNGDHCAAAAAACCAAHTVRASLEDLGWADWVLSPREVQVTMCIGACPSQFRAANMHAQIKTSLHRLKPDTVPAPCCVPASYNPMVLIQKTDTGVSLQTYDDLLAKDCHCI

[13] = biological target: T11, mutant hGDF15 T72A (human, UniProt Q99988 197-308); assay: as above
T11 construct: Expressed in ExpiCHO-S cells and used as culture supernatant in the ELISA
T11 chain: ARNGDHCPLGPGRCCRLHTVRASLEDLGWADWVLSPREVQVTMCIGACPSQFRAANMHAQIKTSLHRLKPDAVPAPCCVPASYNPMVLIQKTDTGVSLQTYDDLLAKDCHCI

[14] = biological target: T5, mutant hGDF15 6A; assay: as above
[15] = biological target: T12, mutant hGDF15 R13A, R16A (human, UniProt Q99988 197-308); assay: as above
T12 construct: Expressed in ExpiCHO-S cells and used as culture supernatant in the ELISA
T12 chain: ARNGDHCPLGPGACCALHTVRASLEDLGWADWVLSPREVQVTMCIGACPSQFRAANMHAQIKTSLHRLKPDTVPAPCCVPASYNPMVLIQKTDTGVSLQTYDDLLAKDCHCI

[16] = biological target: T10, mutant hGDF15 8A; assay: sandwich ELISA, HuMAB2 immobilised, mutant hGDF15, goat polyclonal detection (relative value -0.1)

IC50 [1]: > 500 nM
binding result [2]: no binding (tested: 10 µg/mL)
binding result [3]: no binding (tested: 10 µg/mL)
binding result [4]: no binding
binding result [5]: no binding
binding result [6]: no binding
relative binding (amount bound to 500 pg/mL hGDF15 = 100) [7]: 17.8 relative value (WT hGDF15 = 100)
relative binding (amount bound to 500 pg/mL hGDF15 = 100) [8]: 24 relative value (WT hGDF15 = 100)
relative binding (amount bound to 500 pg/mL hGDF15 = 100) [9]: 136 relative value (WT hGDF15 = 100)
relative binding (amount bound to 500 pg/mL hGDF15 = 100) [10]: 0 relative value (WT hGDF15 = 100)
relative binding (amount bound to 500 pg/mL hGDF15 = 100) [11]: 0.4 relative value (WT hGDF15 = 100)
relative binding (amount bound to 500 pg/mL hGDF15 = 100) [12]: -0.1 relative value (WT hGDF15 = 100)
relative binding (amount bound to 500 pg/mL hGDF15 = 100) [13]: 101 relative value (WT hGDF15 = 100)
relative binding (amount bound to 500 pg/mL hGDF15 = 100) [14]: 0 relative value (WT hGDF15 = 100)
relative binding (amount bound to 500 pg/mL hGDF15 = 100) (relative value (WT hGDF15 = 100)) [15]: 4.9
binding result [16]: no binding
B1: HuMAB2 (antibody, human IgG1, kappa, V domains shown)
VH: QVQLQESGPGLVKPSETLSLTCTVSGFSINSDCYWIWIRQPPGKGLEYIGYTFYSGITYYNPSLASRTTISRDTSKNQFSLKLSSVTAADTAVYYCARDCDYAMDYWGQGTLVTVSS
VL: DIQMTQSPSSLSASVGDRVTITCRASQDISNYLNWYQQKPGKAVKLLIHYTSTLHSGVPSRFSGSGSGTDYTLTISSLQPEDFATYFCQQGNTLPWTFGQGTKLEIKR
notes: Humanized MAB2 joined to the constant region of bevacizumab; The printed copies of the L chain differ from each other; also called HuMAB2 antibody; H3delK/L7
